# B1: TPR t1 (parent)
# chain: GACCAAUCUGCCCUCAGAGCUCGAGAACAUCUUCGGAUGCAGAGGAGGCAGGCUUCGGUGGCGCGAUAGCGCCAACGUCCUCAACCUCCAAUGCAUCCCACCACAUGAUGAUGCCUGAAGAGCCUUGGUUUUUUG
# Variants of: B1
# Assay: polymerase ribozyme fitness, log enrichment relative to wild type (log ratio); higher = more active; in vitro selection for triplet polymerase activity
# Summary of the method: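 Frozen incubation at −7 °C formed the core of a single, triplicate in vitro selection round applied to PCR-built, transcribed mutant libraries of each subunit of a heterodimeric triplet polymerase ribozyme. Extended constructs were gel-excised, captured with streptavidin beads and amplified by RT-PCR, and input and output libraries were Illumina-sequenced with a filter of ≥10 input reads and ≥1 read per output. Fitness is the logarithm of genotype enrichment relative to wild-type enrichment, with inverse-variance-weighted replicate averaging, and the logarithm is base 2.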
row,Variant,polymerase ribozyme fitness (log ratio)
1,GACCAAUCUGCCCUCAGAGCUCGAGAACAUCUUCGGAUGCAGAGGAUUCAGGCUUCGGUGGCUCGAUAGCGCCAACGUCCUCAACCUCCAAUGCAUCCCACCACAUGAUGGUGCCUGAAGAGCCUUGGUUUUUUG [G47U G48U G63U A111G],-4.04
2,GACCAAUCUGCCCUCAGAGCUCGAGAACAUCUUCGGAUGCAGAGGAUGCAGGCUUCGGUGGCGCGAUAGCACCAACGUCCUCAACCUCCAAUGCAUCCCACCACAUGAUGACGCCUGAAGAGCCUUGGUUUUUUG [G47U G71A U112C],-0.298
3,GACCAAUCUGCCCUCAGAGCUCGAGAACAUCUUCGGAUGCAGAGGAUGCAGGCUUCGGUGGCGCGAUAGCGCCAACGUCCUCAACCUCCAAUGCAUCCCACCAAAUGAUGAUGCCUGAAGAGCCUUGGUUUUGUG [G47U C104A U133G],-4.19
4,GACCAAUCUGCCCUCAGAGCUCGAGAACAUCUUCGGAUGCAGAGGAUACAGGCUUCGGUGGCGCGAUAGCGCCAACGUCCUCAACCUCCAAUGCAUCCCACCACAUGAUGAUGCCUGAAGAGCCUUGGUUUUUUG [G47U G48A],0.823
5,GACCAAUCUGCCCUCAGAGCUCGAGAACAUCUUCGGAUGCAGAGGAUGCAGGCUUCGCUGGCGCGAUAGCGCCAACGUCCUCAACCUCCAAUGCAUCCCACCACAUGAUGAUGCCUGAAGAGCCUUGGUUUUUUG [G47U G58C],-0.433
6,GACCAAUCUGCCCUCAGAGCUCGAGAACAUCUUCGGAUGCAGAGGAUGCAGGCUUCGUUGGCGCGAUAGCGCCAACGUCCUCAACCUCCAAUGCAUCCCACCACAUGAUGAUGCCUGAAUAGCCUUGGUUUUUUG [G47U G58U G120U],-1.02
7,GACCAAUCUGCCCUCAGAGCUCGAGAACAUCUUCGGAUGCAGAGGAUGCAGGCUUCGGUGGCGCGAUAGCGCCAACGUCCUCAACCUCCAAUGCAUCCCACCACAUGAUGAUGCCUGAAUAGCCUUGGUUUUUUG [G47U G120U],-0.0894
8,GACCAAUCUGCCCUCAGAGCUCGAGAACAUCUUCGGAUGCAGAGGAUGCAGGCUUCGGUGGCGCGAUAGCUCCAACGUCCUCAACCUCCAAUGCAUCCCACCACAUGAUGAUGCCUGAUGAGACUUGGUUUUUUG [G47U G71U A119U C123A],-2.79
9,GACCAAUCUGCCCUCAGAGCUCGAGAACAUCUUCGGAUGCAGAGGAUGCAGGCUUCGGUGGCGCGAUACCGCCAACGUCCUCAACCUCCAAUGCAUCCCACCACAUGAUGAUGCCUGAAGAGCCUUGGUUUUUUG [G47U G69C],-3.62
10,GACCAAUCUGCCCUCAGAGCUCGAGAACAUCUUCGGAUGCAGAGGAUGCAGGCUUCAGUGGCGCGAUAGCGCAAACGUCCUCAAGCUCCAAUGCAUCCCACCACAAGAUGAUGCCUGAAGAGCCUUGGUUUUAUG [G47U G57A C73A C85G U106A U133A],-5.19
11,GACCAAUCUGCCCUCAGAGCUCGAGAACAUCUUCGGAUGCAGAGGAUGCAGGCUUCGGUGGCGCGAUAGCGCCAACGUCCUCAACCUCCAAUGCAUCCCACCACAUGAUGAUGGCUGAAGAGCCUUGGUUUUUUG [G47U C114G],-4.11
12,GACCAAUCUGCCCUCAGAGCUCGAGAACAUCUUCGGAUGCAGAGGAUGCAGGCUUCGGUGGCACGAUAGCGCCAACGUCCUCAACCUCCAAUGCAUCCCACCACAUGAUGAUGCCAGAAGAGCCUUGGUUUUUUG [G47U G63A U116A],-4.47
13,GACCAAUCUGCCCUCAGAGCUCGAGAACAUCUUCGGAUGCAGAGGAUUCAGGCUUAGGUGGCGCGAUAGCGCAAACGUCCUCAACCUCCAAUGCAUCCCACCACAUGAUGAUGCCUGGAGAGCCUUGGUUUUUUG [G47U G48U C56A C73A A118G],-3.88
14,GACCAAUCUGCCCUCAGAGCUCGAGAACAUCUUCGGAUGCAGAGGAUACAGGCUUCGGUGGCCCGAUAGCGCCAACGUCCUCAACCUCCAAUGCAUCCCACCACAUGAUGAUGCCUGAGGAGCCUUGGUCUUUUG [G47U G48A G63C A119G U130C],-1
15,GACCAAUCUGCCCUCAGAGCUCGAGAACAUCUUCGGAUGCAGAGGAUGCAGGCUUCAGUGGCGCGAUAGCGCCAACGUCCUCAACCUCCAAUGCAUCCCACCACAGGAUGAUGCCUGAAGAGCCUUGGUUUAUUG [G47U G57A U106G U132A],-4.76
16,GACCAAUCUGCCCUCAGAGCUCGAGAACAUCUUCGGAUGCAGAGGAUGCAAGCUUCGGUGGCGCGAUAGCGCCAACGUCCUCAACCUCCAAUGCAUCCCACCACAUGAUGAUGCCUGAAGGGCCUUGUUUUUUUG [G47U G51A A121G G128U],-3.97
17,GACCAAUCUGCCCUCAGAGCUCGAGAACAUCUUCGGAUGCAGAGGAUGCAGGCUUCGGUGGCGCGAUAGCGCCAACGUCCUCAACCUCCAAUGCAUCCCACCAUAUGAUGAUGCCUGAAGAGCCUUGGUUUUUUG [G47U C104U],-1.55
18,GACCAAUCUGCCCUCAGAGCUCGAGAACAUCUUCGGAUGCAGAGGAUGCAGACUUCGGUGGCGCGAUAGCGCCAACGUCCUCCACCUCCAAUGCAUCCCACCACAUGAUGAUGCCUGAAGAGCCUUGGUUUUUUG [G47U G52A A83C],-2.36
19,GACCAAUCUGCCCUCAGAGCUCGAGAACAUCUUCGGAUGCAGAGGAUGCAGGCUUCGGUGGCGCGAUAGCGCCAACGUCCUCAACCUCCAAUGCAUCCCACCACAUGAUGAUGCUUGAAGAGCCUUGGUUUUUUG [G47U C115U],-2.5
20,GACCAAUCUGCCCUCAGAGCUCGAGAACAUCUUCGGAUGCAGAGGAUGCAGACUUCGGUGGCGCGAUAGCGCCAACGUCCUCAACCUCCAAUGCAUCCCACCACAUGAUGAUGCCUGAAGAGCCUUGGUUUUUUG [G47U G52A],-2.71
21,GACCAAUCUGCCCUCAGAGCUCGAGAACAUCUUCGGAUGCAGAGGAUGCAGGCUUCUGUGGCGCGAUAGCGCCAACGUCCUCAACCUCCAAUUCAUCCCACCACAUGAUGAUGCCUGAAGAGCCUUGGUUUUUUG [G47U G57U G93U],-3.51

# Source: the RNAGym collection of RNA variant scans (doi:10.1073/pnas.2313332121)
